Data reported in paper PMC5880107, “The Sequence-specific Peptide-binding Activity of the Protein Sulfide Isomerase AGR2 Directs Its Stable Binding to the Oncogenic Receptor EpCAM*^([image sbox.jpg])” (Molecular & Cellular Proteomics : MCP, 2018).
Numbering of substitutions follows the chain as printed. Numbers in names are those of the source. No end group written: not given here.

B1: wt-peptide PTTIYY (non-biotinylated hexapeptide) (peptide)
peptide: PTTIYY
notes: also called PTTIYY hexapeptide; source: synthetic peptide
B2: PTTIYY hexapeptide with Tyrosine at position 5 changed to Tryptophan (peptide)
peptide: PTTIWY
notes: also called PTTIWY; source: synthetic peptide (mutational scan library)
B3: PTTIYY hexapeptide with Isoleucine at position 4 changed to Leucine (peptide)
peptide: PTTLYY
notes: also called PTTLYY; source: synthetic peptide (mutational scan library)
B4: PTTIYY hexapeptide with Tyrosine at position 5 changed to Phenylalanine (peptide)
peptide: PTTIFY
notes: also called PTTIFY; source: synthetic peptide (mutational scan library)
B5: PTTIYY hexapeptide with Tyrosine at position 6 changed to Phenylalanine (peptide)
peptide: PTTIYF
notes: also called PTTIYF; source: synthetic peptide (mutational scan library)
B6: PTTIYY hexapeptide with the Y-A mutation at position 6 (peptide)
peptide: PTTIYA
notes: also called PTTIYA; source: synthetic peptide (mutational scan library)
B7: PTTIYY hexapeptide with Tyrosine at position 6 changed to Tryptophan (peptide)
peptide: PTTIYW
notes: also called PTTIYW; source: synthetic peptide (mutational scan library)
B8: His-AGR2 WT (mature AGR2, amino acids 21-175, N-terminal 6xHis tag; plasmid pmAGR2) (natural protein, human)
chain: RDTTVKPGAKKDTKDSRPKLPQTLSRGWGDQLIWTQTYEEALYKSKTSSKPLMIIHHLDECPHSQALKKVFAENKEIQKLAEQFVLLNLVYETTDKHLSPDGQYVPRIMFVDPSLTVRADITGRYSNRLYAYEPADTALLLDNMKKALKLLKTEL
notes: human AGR2, mature form without the ER leader, residues 21-175; also called wt-AGR2; wild-type AGR2; source: E. coli BL21-AI, purified (Ni-NTA agarose; gel filtration buffer exchange for HDX)
B9: His-AGR2 D132A (plasmid pmAGR2D132A) (natural protein, human)
chain: B8 chain with D112A
notes: human AGR2 residues 21-175; source: E. coli BL21-AI, purified (Ni-NTA agarose); not shown: His6 (leader as in m1), N-terminal, kept
B10: His-AGR2 P133A (plasmid pmAGR2P133A) (natural protein, human)
chain: B8 chain with P113A
notes: as for B9
B11: His-AGR2 S134A (plasmid pmAGR2S134A) (natural protein, human)
chain: B8 chain with S114A
notes: Ser at 69 as in m1; also called mutant AGR2^S134A; source: E. coli BL21-AI, purified (Ni-NTA agarose; gel filtration buffer exchange for HDX)

Legend:
[1] = target: B8; experiment: ELISA; competition: biotinylated peptide A4 on the streptavidin-coated solid phase; fixed 1 μg AGR2 added with 100 ng of the indicated non-biotinylated synthetic peptide; AGR2 binding in RLU; conditions: both partners purified
[2] = target: T1, 16mer AGR2-interacting peptide SGSG-HLPTTIYYGPPG; experiment: HDX-MS; His-AGR2 WT 1 μM incubated 30 min with peptide 10 μM (1% DMSO), 10-fold dilution into deuterated buffer (20 mM Tris-HCl pD 7.6, 150 mM NaCl, 10 mM MgCl2), room temperature, 30 s to 3 h, pepsin; conditions: both partners purified
T1 construct: peptide A4 with an N-terminal SGSG stretch, as used for hydrogen-deuterium exchange; also called peptide A4 (in the HDX experiment); consensus site peptide A4; source: synthetic peptide (Chiron Mimotopes), stock 5 mg/ml in DMSO
T1 peptide: SGSGHLPTTIYYGPPG

[3] = target: free consensus site containing peptides; experiment: fluorescence polarisation; data not shown; AGR2 binding to free consensus site containing peptides in solution
[4] = target: T2, biotinylated Peptide A4 (AGR2-binding peptide aptamer, HLPTTIYYGPPG) (also: biotinylated, end not given here); experiment: ELISA; biotinylated peptide A4 (5 μg/well) captured on streptavidin-coated microtitre plate; wt or mutant AGR2 titrated in 3% BSA in PBS-T, 1 h room temperature; detected with AGR2 antibody K47, RLU; conditions: both partners purified
T2 construct: also called TTIYY-containing peptide; source: synthetic peptide (Chiron Mimotopes)
T2 peptide: HLPTTIYYGPPG

[5] = target: T3, His-EpEX-CO, extracellular domain of EpCAM (amino acids 24-265), N-terminal 6xHis tag (human); experiment: ELISA; His-EpCAM (EpEX, wt or Y251A) immobilised on polystyrene microtitre plate in 0.1 M NaHCO3 pH 8.6; AGR2 wt or mutants titrated in the mobile phase (0-1 μg), 1 h room temperature; without or with 1 mM DTT at the binding or the blocking step; detected with AGR2 antibody K47, RLU; conditions: both partners purified
T3 construct: human EpCAM extracellular domain (EpEX), amino acids 24-265 of NM_002354; For HDX the protein was eluted with 1 mM DTT in the final buffer; also called wt-EpCAM; His-EpCAM; source: E. coli BL21-DE3, solubilised with 7 M urea, purified (Ni-NTA agarose); not shown: His6 followed by a TEV protease site, N-terminal, kept
T3 chain: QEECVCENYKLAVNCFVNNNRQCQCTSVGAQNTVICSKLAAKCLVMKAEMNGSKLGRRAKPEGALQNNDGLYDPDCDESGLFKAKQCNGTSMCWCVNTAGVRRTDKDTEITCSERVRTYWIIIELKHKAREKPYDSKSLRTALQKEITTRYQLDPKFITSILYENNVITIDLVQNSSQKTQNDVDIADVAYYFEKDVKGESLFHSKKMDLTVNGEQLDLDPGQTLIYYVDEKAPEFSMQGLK

Binder | binding result [1] | binding result [4] | binding result [5] | further results
B1 | binds |  |  | 
B2 | binds |  |  | 
B3 | binds |  |  | 
B4 | binds |  |  | 
B5 | binds |  |  | 
B6 | binds |  |  | 
B7 | binds |  |  | 
B8 |  | binds | binds | binding result [2]: binds; Kd [3]: 15 to 45 µM
B9 |  | binds | binds | 
B10 |  | binds | binds | 
B11 |  | binds | binds | 
